What was measured:
Format in all cases: cell-based, human
[1] = tested on: H9 hESCs; test: Localized mesendoderm differentiation of hPSCs on adsorbed BMP4 patterns (BRACHYURY immunostaining, day 2); conditions: for mesendoderm differentiation (BRA expression): two days in mTeSR1
Description: […] For glass surfaces, 1.5 ng/μl BMP4 solution was used. 5 ng/μl noggin solution was placed as a droplet to show an inhibitory effect of noggin on BMP4-induced mesendoderm differentiation. After washing, substrate was coated with Matrigel® for 2 hours as described above. Glass was coated with Matrigel® overnight. 0.025 mg/ml Synthemax (Corning, 3535) (final concentration, diluted in water) was added to a washed TC-treated plate and the plate was incubated for 2 hours at room temperature prior to cell seeding. 5 μg/ml truncated recombinant human vitronectin (Gibco, A14700) diluted in PBS was added to a washed TC-treated plate and the plate was incubated for 1 hour at room temperature prior to cell seeding. After ECM coating, the ECM solution was aspirated and hPSCs were singularized using Accutase (10 min incubation at 37° C.), resuspended in mTeSR1 supplemented with 5 μM Y-27632, and seeded at 5×10^5 to about 1×10^6 cells/cm^2 on coated substrates (day 0). On the next day (day 1), medium was changed with fresh mTeSR1. […]
For immunostaining of other protein markers, cells were fixed in 4% paraformaldehyde (Electron Microscopy Sciences, 15710-S) in PBS for 15 min at room temperature, washed with PBS three times, and incubated in diluted primary antibodies in 5% nonfat dry milk (Santa Cruz Biotechnology, sc-2324)/0.4% Triton X-100 (Fisher Scientific, BP151-500) PBS overnight at 4° C. […] After secondary antibody staining, the cells were washed with PBS three times, incubated in 2 μg/ml Hoechst 33342 diluted in PBS for 5 min at room temperature, washed with PBS two times, and analyzed under the fluorescence microscope. […]
Next, BMP4 solution was placed on TC-treated plates in various patterns (droplet, letters, circle, heart, and star), and hPSCs seeded onto the substrate in mTeSR1 maintenance medium. […] Since the presence of inhibitory morphogens is also important in developmental patterning, a BMP inhibitor, noggin, was evaluated for antagonism to localized BMP4-induced mesendoderm differentiation. […]

[2] = tested on: H9 hESCs; test: Localized cardiomyocyte differentiation on BMP4 patterns (cTnT immunostaining, day 8); conditions: 2.5 ng/μl BMP4 pattern, 5 μM IWP2 at day 3, day 8
Description: For localized cardiomyocyte (CM) differentiation, 2.5 ng/μl BMP4 solution was placed in PDMS stencil masks on a TC-treated plate. Matrigel® coating and hPSC seeding was performed as described above. At day 1 and day 2, medium was changed with fresh RPMI B27−. Afterwards, CM differentiation was performed based on the GiWi protocol (Lian et al. (2013) Nature protocols 8, 162-175). At day 3, cells were treated with 5 μM IWP2 in fresh RPMI B27−. At day 5, medium was changed with fresh RPMI B27−. At day 7, medium was changed with fresh RPMI B27+. At day 8, a beating phenotype of patterned CM derived from H9-hTNNT2-GFP hESC was recorded using a fluorescence microscope (Nikon, Eclipse Ti2-E) equipped with a heating stage top incubator (Tokai Hit, Tokai Hit STX Series Stage Top Incubator System). Cells were also immunostained for analysis at day 8.
Based on the results showing localized mesoderm differentiation on BMP-patterned substrates, mesodermal cells were examined to see if they could be further differentiated on these patterns into cardiomyocytes, a specialized mesodermal cell type. BMP4 patterns were used to direct mesoderm and Wnt inhibition by addition of IWP2 to the culture medium at day 3 to specify cardiac mesoderm and achieve patterned CM differentiation (FIG. 4A). The H9-hTNNT2-GFP hESC reporter line was used to visualize patterning of CMs in live cells. […]

[3] = tested on: H9 hESC-derived cardiac progenitor cells (CPCs); test: Localized EpiC differentiation of hPSC-derived cardiac progenitors on morphogen droplets (WT1 immunostaining); conditions: droplets on TC-coated PS plate, 7d after cardiac progenitor seeding
Description: For localized EpiC differentiation, BMP4 (2 ng/μl)+Wnt3a (40 ng/μl) solution was placed in PDMS stencil masks either on a TC-treated plate or an ibidi 35 mm polymer dish. Matrigel® coating was performed as described above. Cryopreserved CPCs were thawed and seeded at 500,000-550,000 cells/cm^2 in LaSR medium (advanced DMEM/F12 (Gibco, 12634-010) supplemented with 60 μg/ml ascorbic acid (Sigma, A8960) and 2.5 mM Glutamax (Gibco, 35050-061)) supplemented with 5 μM Y-27632). Medium was changed daily with fresh LaSR medium until analysis. Time lapse imaging of CPCs derived from H9-hTNNT2-GFP hESC during localized EpiC differentiation was performed using a fluorescence microscope equipped with a heating stage top incubator. 18 days after CPC seeding, cells cultured on an ibidi polymer dish were immunostained and imaged using a confocal microscope (Nikon, A1R-SI+) for the analysis of sarcomere structure.
Spatial organization of cell fate commitment is important throughout development. […] These cardiac progenitors can further differentiate into CMs without any specific external signaling factors and can also differentiate into EpiCs upon activation of canonical Wnt signaling (Bao et al. (2016) Nature biomed. Eng. 1, 1-12).

B1: BMP4: human recombinant BMP4 (Invitrogen, PHC9534), morphogen adsorbed on the substrate (protein, UniProt P12644 293-408, looked up)
Bone morphogenetic protein 4: SPKHHSQRARKKNKNCRRHSLYVDFSDVGWNDWIVAPPGYQAFYCHGDCPFPLADHLNSTNHAIVQTLVNSVNSSIPKACCVPTELSAISMLYLDEYDKVVLKNYQEMVVEGCGCR
[1]; BMP4 droplets adsorbed on TC-treated PS, Matrigel coating
  mesendoderm differentiation (BRA expression): induced localized mesendoderm differentiation
[1]; BMP4 droplets adsorbed on untreated PS surface
  mesendoderm differentiation (BRA expression): none of the BMP4 droplets induced mesendoderm differentiation
[1]; untreated PS surface, 0.1, 0.2, and 2.5 ng/ul BMP4 droplets
  cell attachment on the patterned area: partially or fully inhibited cell attachment
[2]
  cardiomyocyte differentiation (cTnT): localization of CMs to the patterned area
[3]
  EpiC differentiation (WT1 expression): limited if any EpiC differentiation
